Measured values reported in patent publication US20210009706A1 (JIANGSU HENGRUI MEDICINE, published 2021).

T1: Human CD27-HisFc (human, UniProt P26842 21-192)
T1 construct: Bought reagent; also called CD27-HisFc (Sino Biological #10039-H03H); human CD27-HisFc fusion protein; not shown: His tag and Fc
T1 sequence (looked up): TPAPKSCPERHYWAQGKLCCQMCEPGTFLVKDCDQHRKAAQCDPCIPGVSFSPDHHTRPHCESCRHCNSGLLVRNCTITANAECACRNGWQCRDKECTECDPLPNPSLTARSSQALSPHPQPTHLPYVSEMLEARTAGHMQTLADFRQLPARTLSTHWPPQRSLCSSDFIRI

T2: human CD27-his antigen (Yiqiao Shenzhou #10039-H08H) (human, UniProt P26842 21-192)
T2 construct: Bought reagent; also called huCD27-his (Sino Biological); not shown: His tag
T2 sequence (looked up): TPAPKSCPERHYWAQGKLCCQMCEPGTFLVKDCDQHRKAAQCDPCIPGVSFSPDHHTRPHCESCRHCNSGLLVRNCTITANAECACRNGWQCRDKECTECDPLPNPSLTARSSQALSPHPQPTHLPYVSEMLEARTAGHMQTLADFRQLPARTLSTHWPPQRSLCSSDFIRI

T3: Murine CD27-HisFc (murine, UniProt P41272 24-182, limits assumed)
T3 construct: not shown: His tag and Fc
T3 sequence (looked up): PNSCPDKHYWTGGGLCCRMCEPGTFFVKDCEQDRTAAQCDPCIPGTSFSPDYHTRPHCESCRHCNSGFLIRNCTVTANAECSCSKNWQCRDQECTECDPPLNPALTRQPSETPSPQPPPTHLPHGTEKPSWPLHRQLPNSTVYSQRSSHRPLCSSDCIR

T4: Human CD27-His (human, UniProt P26842 21-192)
T4 construct: also called CD27-His (Sino Biological #10039-H08B1); not shown: His tag
T4 sequence (looked up): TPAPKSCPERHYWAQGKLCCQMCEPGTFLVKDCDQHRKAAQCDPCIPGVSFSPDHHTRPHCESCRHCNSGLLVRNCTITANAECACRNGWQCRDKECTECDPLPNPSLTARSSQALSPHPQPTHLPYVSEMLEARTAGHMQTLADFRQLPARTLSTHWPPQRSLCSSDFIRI


Key:
[1] = molecular target: T1, Human CD27-HisFc; test: BLI (Octet RED96), CD27-HisFc captured on AHC sensor, Fab in solution, 1:1 Langmuir fit
Source text: The antibody Fab fragment of each unique sequence with addition of histidine tag at its C-terminus was overexpressed using E. coli expression system, and then purified by Ni-NTA affinity resin. […] The collected data was processed by Data Acquisition 7.1 software and fitted to a 1:1 Langmuir model curve. The antibody mAb077 with the best binding capacity was obtained by screening for further analysis and development experiments.

[2] = molecular target: T2, human CD27-his antigen (Yiqiao Shenzhou …); test: SPR (Biacore T200), antibody captured on protein A chip, CD27-his as analyte, 1:1 Langmuir fit
Source text: The protein A biosensor chip was used to affinity capture the antibody molecule to be tested, and then the human CD27-his antigen (Yiqiao Shenzhou #10039-H08H) of various gradient concentrations was flowed on the surface of the chip, and the reaction signal was detected in real time with the Biacore T200 instrument to obtain the association and dissociation curve. After the dissociation of each experimental cycle was completed, the biosensor chip was washed and regenerated with glycine-hydrochloric acid regeneration solution (pH 1.5). BIAevaluation version 4.1 and GE software were used to fit the data with a (1:1) Langmuir model, the affinity values were obtained as shown in the table below. The affinity of the mutant molecule 077N74T is slightly higher than that of the original mAb077 molecule but there is no significant difference.

[3] = molecular target: T1, Human CD27-HisFc; test: BLI (Octet RED96), 1:1 Langmuir fit; format for IgG not described
[4] = molecular target: T3, Murine CD27-HisFc; test: as above
[5] = molecular target: Macaca CD27-Fc (Macaca); test: as above
[6] = molecular target: T4, Human CD27-His; test: as above

| Binder | Kd [2] | koff [2] | kon [2] | Kd [5] | koff [5] | kon [5] | other results |
| --- | --- | --- | --- | --- | --- | --- | --- |
| mAb077-Fab (Fab, V domains shown, only the variable domains are tied to the Fab; also called mAb077 Fab fragment; mAb77) VH: EVQLVESGGGLVQPGGSLRLSCAASGFTFSGYGIHWVRQAPGKGLEWIGWINPNRGSTKYAQKFQGRVTISRDNSKNTLYLQLNSLRAEDTAVYYCARDPGYTWYFDVWGQGTLVTVSS VL: DIQLTQSPSSLSASVGDRVTITCRASQDISSDLAWYQQKPGKAPKLLIYAASTLQSGVPSRFSGSGSGTDFTLTISSLQPEDFATYYCQQRDAWPPTFGQGTKVEIK |  |  |  |  |  |  | Kd [1]: 4.08 nM; koff [1]: 0.00121 s⁻¹; kon [1]: 296000 M⁻¹ s⁻¹ |
| 077N74T (antibody, V domains shown, The light chain is the same as in mAb077; also called mutant molecule 077N74T; 077N74T antibody) VH: EVQLVESGGGLVQPGGSLRLSCAASGFTFSGYGIHWVRQAPGKGLEWIGWINPNRGSTKYAQKFQGRVTISRDTSKNTLYLQLNSLRAEDTAVYYCARDPGYTWYFDVWGQGTLVTVSS VL: DIQLTQSPSSLSASVGDRVTITCRASQDISSDLAWYQQKPGKAPKLLIYAASTLQSGVPSRFSGSGSGTDFTLTISSLQPEDFATYYCQQRDAWPPTFGQGTKVEIKR | 0.261 nM | 6.75e-05 s⁻¹ | 259000 M⁻¹ s⁻¹ |  |  |  |  |
| mAb077-IgG (antibody, V domains shown, also called mAb77) VH: EVQLVESGGGLVQPGGSLRLSCAASGFTFSGYGIHWVRQAPGKGLEWIGWINPNRGSTKYAQKFQGRVTISRDNSKNTLYLQLNSLRAEDTAVYYCARDPGYTWYFDVWGQGTLVTVSS VL: DIQLTQSPSSLSASVGDRVTITCRASQDISSDLAWYQQKPGKAPKLLIYAASTLQSGVPSRFSGSGSGTDFTLTISSLQPEDFATYYCQQRDAWPPTFGQGTKVEIKR | 0.335 nM | 8.34e-05 s⁻¹ | 249000 M⁻¹ s⁻¹ | 0.562 nM | 4.26e-05 s⁻¹ | 75800 M⁻¹ s⁻¹ | Kd [3]: 0.137 nM; koff [3]: 2.17e-05 s⁻¹; kon [3]: 158000 M⁻¹ s⁻¹; Kd [4]: 0.0304 nM; koff [4]: 1.33e-05 s⁻¹; kon [4]: 438000 M⁻¹ s⁻¹ |
| 1F5-IgG (antibody, V domains shown) VH: QVQLVESGGGVVQPGRSLRLSCAASGFTFSSYDMHWVRQAPGKGLEWVAVIWYDGSNKYYADSVKGRFTISRDNSKNTLYLQMNSLRAEDTAVYYCARGSGNWGFFDYWGQGTLVTVSS VL: DIQMTQSPSSLSASVGDRVTITCRASQGISRWLAWYQQKPEKAPKSLIYAASSLQSGVPSRFSGSGSGTDFTLTISSLQPEDFATYYCQQYNTYPRTFGQGTKVEIK |  |  |  | 2.13 nM | 0.000243 s⁻¹ | 114000 M⁻¹ s⁻¹ | Kd [6]: 1.39 nM; koff [6]: 9.15e-05 s⁻¹; kon [6]: 65800 M⁻¹ s⁻¹ |
